Measured values published in patent US20130251640A1 (METHODIST HOSPITAL SYSTEM, published 2013).
Non-standard residues stand in square brackets, D forms with d. *: point of attachment. Dnp = O=[N+]([O-])c1ccc(*)c([N+](=O)[O-])c1; Mca = COc1ccc2c(CC(=O)*)cc(=O)oc2c1

T1: Cathepsin E (purchased from Calbiochem, EMD Bioscience)
T1 sequence (P14091 whole entry, species assumed, looked up): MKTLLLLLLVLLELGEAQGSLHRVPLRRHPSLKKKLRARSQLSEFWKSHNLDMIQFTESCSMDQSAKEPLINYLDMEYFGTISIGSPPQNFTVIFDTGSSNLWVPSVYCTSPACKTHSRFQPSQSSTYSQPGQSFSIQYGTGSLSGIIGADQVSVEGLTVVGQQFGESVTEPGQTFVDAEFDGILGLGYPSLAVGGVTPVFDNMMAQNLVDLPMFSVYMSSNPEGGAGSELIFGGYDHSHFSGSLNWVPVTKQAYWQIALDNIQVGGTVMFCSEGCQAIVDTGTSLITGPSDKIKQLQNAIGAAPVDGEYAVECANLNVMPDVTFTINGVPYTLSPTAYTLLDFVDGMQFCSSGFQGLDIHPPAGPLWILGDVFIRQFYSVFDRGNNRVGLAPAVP


Legend:
Assay in all cases: cell-based or functional assay
[1] = biological target: T1, Cathepsin E (purchased from Calbiochem, …)
[2] = biological target: Cathepsin S (purchased from Calbiochem, EMD Bioscience)
[3] = biological target: Cathepsin B (purchased from Calbiochem, EMD Bioscience)

| Binder | net fluorescence signal ratio (Cath E/Cath D) at 10 minutes [1] [fold] | net fluorescence signal ratio (Cath E/Cath D) at 45 minutes [1] [fold] | net fluorescence signal ratio (Cath E/Cath D) at the initial time point [1] [fold] | net fluorescence signal ratio (Cath E/Cath D) immediately after incubation [1] [fold] | further results |
| --- | --- | --- | --- | --- | --- |
| Mca-AGFSLPAK(Dnp)[dR]-NH2 (SMILES COc1ccc2c(CC(=O)N[C@@H](C)C(=O)NCC(=O)N[C@@H](Cc3ccccc3)C(=O)N[C@@H](CO)C(=O)N[C@@H](CC(C)C)C(=O)N3CCC[C@H]3C(=O)N[C@@H](C)C(=O)N[C@@H](CCCCNc3ccc([N+](=O)[O-])cc3[N+](=O)[O-])C(=O)N[C@H](CCCNC(=N)N)C(N)=O)cc(=O)oc2c1) [substrate e, Mca-Ala-Gly-Phe-Ser-Leu**Pro-Ala-Lys(Dnp)-D-Arg-CONH2] | – | – | – | – | net fluorescence signal ratio (Cath E/Cath D) at 1 minute [1]: 265 fold; fluorescence signal increase relative to that observed with Cath E, 90 minutes [2]: < 15%; fluorescence signal increase relative to that observed with Cath E, 90 minutes [3]: < 15% |
| Mca-GSPAFLAK(Dnp)[dR]-NH2 (SMILES COc1ccc2c(CC(=O)NCC(=O)N[C@@H](CO)C(=O)N3CCC[C@H]3C(=O)N[C@@H](C)C(=O)N[C@@H](Cc3ccccc3)C(=O)N[C@@H](CC(C)C)C(=O)N[C@@H](C)C(=O)N[C@@H](CCCCNc3ccc([N+](=O)[O-])cc3[N+](=O)[O-])C(=O)N[C@H](CCCNC(=N)N)C(N)=O)cc(=O)oc2c1) [substrate a, Mca-Gly-Ser-Pro-Ala-Phe**Leu-Ala-Lys(Dnp)-DArg-CONH2] | 4.5 | 1.6 | 17.9 | – | – |
| Mca-AGFSLGPK(Dnp)[dR]-NH2 (SMILES COc1ccc2c(CC(=O)N[C@@H](C)C(=O)NCC(=O)N[C@@H](Cc3ccccc3)C(=O)N[C@@H](CO)C(=O)N[C@@H](CC(C)C)C(=O)NCC(=O)N3CCC[C@H]3C(=O)N[C@@H](CCCCNc3ccc([N+](=O)[O-])cc3[N+](=O)[O-])C(=O)N[C@H](CCCNC(=N)N)C(N)=O)cc(=O)oc2c1) [substrate d, Mca-Ala-Gly-Phe-Ser-Leu**Gly-Pro-Lys(Dnp)-DArg-CONH2] | 4 | 2.3 | 12 | – | – |
| Mca-GPILFFRLGK(Dnp)[dR]-NH2 (SMILES CC[C@H](C)[C@H](NC(=O)[C@@H]1CCCN1C(=O)CNC(=O)Cc1cc(=O)oc2cc(OC)ccc12)C(=O)N[C@@H](CC(C)C)C(=O)N[C@@H](Cc1ccccc1)C(=O)N[C@@H](Cc1ccccc1)C(=O)N[C@@H](CCCNC(=N)N)C(=O)N[C@@H](CC(C)C)C(=O)NCC(=O)N[C@@H](CCCCNc1ccc([N+](=O)[O-])cc1[N+](=O)[O-])C(=O)N[C@H](CCCNC(=N)N)C(N)=O) [substrate b, Mca-Gly-Pro-Ile-Leu-Phe**Phe-Arg-Leu-Gly-Lys(Dnp)-DArg-CONH2] | – | – | – | 1.6 | – |
| Mca-GPILFFRLK(Dnp)[dR]-NH2 (SMILES CC[C@H](C)[C@H](NC(=O)[C@@H]1CCCN1C(=O)CNC(=O)Cc1cc(=O)oc2cc(OC)ccc12)C(=O)N[C@@H](CC(C)C)C(=O)N[C@@H](Cc1ccccc1)C(=O)N[C@@H](Cc1ccccc1)C(=O)N[C@@H](CCCNC(=N)N)C(=O)N[C@@H](CC(C)C)C(=O)N[C@@H](CCCCNc1ccc([N+](=O)[O-])cc1[N+](=O)[O-])C(=O)N[C@H](CCCNC(=N)N)C(N)=O) [substrate c, Mca-Gly-Pro-Ile-Leu-Phe**Phe-Arg-Leu-Lys(Dnp)-DArg-CONH2] | – | – | – | 1.5 | – |
